Results as given in the nanobody polyreactivity screen of Harvey et al. (2022).

Assay: yeast display, Sf9 membrane polyspecificity reagent, FACS + sequencing; frameworks hold sequencing errors
Method in brief: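 Using colony PCR, genes from sorted yeast display clones were amplified, then sequenced on MiSeq at 2 × 250 and filtered by CDR length. The clones had been stained with 10% biotinylated, detergent-solubilized Sf9 membrane reagent for 1 hour at 4 °C and sorted by FACS into low and high (top ~1%) gates on anti-HA and streptavidin fluorescence. Polyreactivity labels come from the gate of origin.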

Row | Sequence | polyreactivity (PSR sort gate)
1 | QVQLVESGGGLLQAGGSLRLICAASGFIVRRYAMGWYRQAPGKARELVAAITSGGSTYYADSVKGRFTISRDNAQYTVYLQFNSMKPVDTADYYCNAYFTGKWYDYWGQGTQVTVSS | high polyreactivity
2 | QVQLVESGGGLVQAGGTLRLSCAASGSIFANYAMGWYRQAPGKERELVASISSGDSTNYADSVKGRFTISRDNAKNTVYLQMNSLKPEDTAVYYCASTFVGGIWSGYNYWGQGTQVTVSS | low polyreactivity
3 | QVQLVESGGGLVQAGGSLRLNCAASGITIRRYAMGCYRQAPGNERELVAAITTGGGGTYYADSVKGRFTISRDNAMNTVYLQMNSLKPEDTAVYYCAATYWRTYPSYYWGQGTQVTVSS | high polyreactivity
4 | QVQLVESGGGLVQAGGSLPLSCAASGSISGLNARGWSRQAPGTEREMVAAISRSGTRRYYADSVKGRFTISRDNEKNTVYLQMNSLKPEDSAVYYCAVQYAVAVGRYNYWGQGTQVTVSS | high polyreactivity
5 | QVQLVESGGGLVQAGGSLRLSCAASGRIFASNAMGWYRPAPGKERELVAAITTTGGSTYYADSVKGRFTISRDNAKNTVYLQMNSLKPEDTAVYYCAKRLGYRYPTYDYWGQGTQVTVSS | high polyreactivity
6 | QVQLVESGGGLVQAGGSLRLSCDASGFTLAWNARGWSRQAPRKERELVATISRSGSSTSYADSVKGRFTISRDNAKNTVYLQMNSLKPEDTAVYYCAKSGRYGFWGQGTQVTVSS | high polyreactivity
7 | QDQLVESRGVLVQAGGSLRLSCAAYGRIISPYAMGWYRQAPGKERELVAAISRRGTRTNYADSVKGRFTLSRDKAKNTVYLQMNSLKPVDTAVYYCNKTPLLRWGQGTQVSVSS | high polyreactivity
8 | QVQLVESGGGLVQAGGSLRLSCAASGFIFRYNAMAWYRQAPGKERELVAAIDSGGSTYYADSVKGRFTISRDNAKNTVYLQMNSMKPEDNAVYYCNAVVEASYPCVDYWGQGTQVTVSS | low polyreactivity
9 | QVQLVESGGGLVQAGGSLRLSCAASGIIFEYYAMGWYRQAPGKERELVAAITRGGSTYYADSVKGRFTISRDNAKNTVYLQMNSLKAEDTAVYYCAADRYYYEYDYWGQGTQVTVSS | low polyreactivity
10 | QVQLLESGGGLVQAGGSLRLSCAASGRTFRRYAMGWYRQAPGKERELVAAISYSGTTTYYADSVKGRFTISRDNAKNTVYLQMNSLKPEDTAVYYCNKATAYGLDYWGQGTQVTVSS | high polyreactivity
11 | QVQLVESGGGLVQAGGSLRLSCAASGFTFFSKAMGWYRQAPGKERELVAAITTNGGSTYYADSVKGRFTISRDNAKNTVYLQMNSLKPEETAVYYCAADYSLPWSWLYEYWGQGTQVTVSS | low polyreactivity
12 | QVQLVESGGVLVQAGGSLRLSCAASGSISSVYAMGWYRQAPGKDRELVAGITSGGSTNYADSVKGRFTISRDNAKITVYLQMNSLKPEDTAVYYCAAVYKGAGTHFDVFVKEFDYWRQGTQVTVSS | low polyreactivity
13 | QVQLVESGGGLVQAGGSLSLTWAASGSTFSYYVMGWYRQAPGKETELVAGITRGGRTYYADSENGRFTISRDNAKNSVFLQMNSLKPEDTAVYYCAKDQGGVLELDYWGQGTQVTVSS | low polyreactivity
14 | QVQLVESGGGLFQAGGSLRLSCAASGSTFESNAMGWYRQAPGKERELVAAISSSGGSTYYADSVKGRFTISRDNAKNTVYLQMNSLKPEVTAVYYCNKGGLSYYDYWGQVTQVTVSS | high polyreactivity
15 | QVQLVESRGGLVQAGGSLRLSCAASGLTFLYNAMGWYRQAPGKERELVAAISQSAGSTYYADSVKGRFTISRDNAKNTVYLQMNSLKPEDTAVYYCAAEWDTPDLVIYDYWGQGTQVTVSS | low polyreactivity
16 | QVQLVESGGGLVQAGGSLRLSCAASGSIFVWYDLGWSRQAPGKERELVATISLSGVSTYYADSVKGRFTISRDTAKNTVYLQMISLKPEDTAVYYCAADFVEQGVDDFWGQGSQVTVSS | low polyreactivity

Row | Sequence | polyreactivity (PSR sort gate)
17 | QVQLVESGGGLVQAGGSLRLSCAASGRTFPENTMGWYRQAPAKERELVAAISSTTSTNYADSVKGRFTISRDNAKNTVYLQMNSLKPEDTAVYFWADDFWEYDGPWYANDYESWGLGTQVTVSS | low polyreactivity
18 | QVQLVESGGGLVQAGGSLRLSCAASGLIFYYYAKGWYRQAPGKEREFVAAISRSGGITRYADSVKGRFTISRDNAKITVYLQMNSLKPEDTAVYYCAADDYPLTYDDYYWGQGTQVTVSS | high polyreactivity
19 | QVQLVESGGGLVQAGGSLRLSCAASGTFYGYAMGGYRQSPGKERELVAAITWSGGSTYYADSVKGRFTISRDNAKNTVYLQMNSLKPEDTAVYYCAASLYSGYDSWGQGTQVTVSS | low polyreactivity
20 | QVKLVESGGGLVQAGGSLRLSCAASGSIFPRYAMGWYRQAPGKERELVAAITGSGSSTYYADSVKGRFTISRDNAKNTVYFQMNSLKPEDTAVYYCAARKARPPFPHPFDYYWGQGTQVTVSS | low polyreactivity
21 | QVQLGESGGGLVQAGGSLSLSCAASGSIFRNYAMGWYRPAPGKEWELVAAITRGGPTNYADSVKGRVTISRDHAKNTVYLQMNRQKPEDTAVYYCNAAWRLGWTHWETTRYVYWGQGTHVTVSS | high polyreactivity
22 | QVQLVESGGGLLQAGGSLRLSCASSGRTFKANAMVWYRQAPGKERELVAAISYSGGNTYYADSVKGRFTISRDNANNTVYLQMNSLKPEDTAVYYCARYYYLPVVDMDYWGQGTQVTVSS | high polyreactivity
23 | QVQLVESGGGLVQAGGSLRLSCAASGITFGDYAMVWYRQAPGKERELVAAITSGGSTYYADSVKGRCTISRDNAKNTVYLQMNILKPEDTAVYYCNRQYNQWIHYYYRMDYWGQGTQVTVSS | high polyreactivity
24 | QEQLQESGGGLVQAGGSLRLSCAASGSIYDDTYMARYRQAPGKERELVATIDSGSTTNYADSVKGRITISRDNAKNTVYLQMNSLKPEDSAVYYCAAADSHIDYFDYWGQGTQVTVSS | low polyreactivity
25 | QVQLVESGGGLFQAGGSLRLSSAASGFIFWTNVMGWYRQQPGKVRELVAGISKSGGSTYYADSVKGRFTISRDNAKNTVYLQMNCLKPEDTAVYYCAAPRPPAGRYGYWGQGTQVTVSS | high polyreactivity
26 | QVQLVESGGGLVEAGGSLRLSGAASGRSFGIYAMGWYRQAPGKERELVAAITWSGDSTYYADSVKGRFTISRDNAKKTVYLQMNILKPEDTAVYYCAADDVGVTSVRYDYWGQGTLVTVSS | low polyreactivity
27 | QVQLAESGGGLVQAGGSLRLSCSASGSTFVAYAMGWYRQAPGKERELVAAITRSGGSTYYADSVKGRFTISRDNAKNTVYLQMNSLKPEDTAVFYCAARHYRSRDGYWGQGTQVTVSS | high polyreactivity
28 | QVQLVESGGGLVQAGGSLRLSCAASGSIFDFNAMGWYRQAPGKERELVAAIDDIDDSTYYSDSVKGRFTISRDNAKNTVYLQMNSLKPEDTAVYYCAAELRPGYRSSYGLIYDYWGQGTQVTVSS | low polyreactivity
29 | QVQLVESGGGLVQAGGSLRLSCAASGLTFDSSAMGWYRQAPGTERELVAAISFSGGRTYYADSVKGRFTISRDTAKNTVYLQMNSLKPDDTAVYYCAAQLRYKYDYWGHGTQVTVSS | high polyreactivity
30 | QVQLVESGGGLVQAGGSLRLSCAASGFIFRYYAMGWYRQAPGKERELVAAISGSGGGTYYADSVKGRFTISRDNAKNTVYLQMNSLKPEDTAVYYCAAGSTSGYFRYYYWGQGSQVTVSS | high polyreactivity
31 | QVQLVESGGGLVQAGGSLRISCAASGSIFTAYAMGWYRQAPGKERELVAAITQSAGSTYADSVKGRFTISRDNAKNTVYLPMHSLNQEDTAVSYCAARYRYPYYARYGYWGQGTQVTVSS | high polyreactivity
32 | QVQLVESGGGLVQAGGSLRLSCAASGLTFRYYAMGWYRQAPGKERELVAAITRRGSTYYADSVKGRFTISRDNAKNSVYLQMNSLKPEDTAVYYGATVTGFHSSPLRDLDYWGQGTQVTVSS | high polyreactivity
